Assay: yeast display, Sf9 membrane polyspecificity reagent, FACS + sequencing; frameworks hold sequencing errors
How it was run: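 A nanobody's polyreactivity label depends on the gate it was sorted from. Yeast display cells were stained with 10% biotinylated, detergent-solubilized Sf9 membrane reagent for 1 hour at 4 °C, enriched on streptavidin microbeads and sorted by FACS. The low and high (top ~1%) gates were set on anti-HA fluorescence for expression and streptavidin fluorescence for reagent binding.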

QDQLVESGGGLVQAGGSLRLSCAASGSIFLYNAMGWYRQAPGKERELVADITSAGRTYYADSVKGRFTISRDNAKNTVYLQMNSLKPEDTAVYDCNKDYHYHFSWYGYWGQGTQVTVSS
polyreactivity (PSR sort gate): low polyreactivity

QVQLVESGGGLVQAGGSLRLSCAASGSIFPGYAMGWYRQAPGKERELVAAITFSGGSTYYADSVKGRFTISRDNAKNTVYLLMISLKPEDTAVYYCAAPGWYGGYPSFYYWGQGTQVTVSS
polyreactivity (PSR sort gate): low polyreactivity

QVQLVESGGGLVQAGGSLRLSCAASGSIFKRNAMGWYRQAPGKERELVASITWRGGRTYYADSVKGRFTISRDNAKNTVYLQMNILKPEDTAVYYCATTQYTSHYDAYGYWGQGTQVTVSS
polyreactivity (PSR sort gate): high polyreactivity

QVQLVESGGGLLQAGVSLRLSCAASGRIYSKYAMGRYRQAPGKERELVAAITYSGGSTYYADSVKGRFTISRDNAKNTVYLQMNSLKPEDSAVYYCAAVHCTSYSKWFGYWGQGTQVSVSS
polyreactivity (PSR sort gate): low polyreactivity

QVQLVESGGGLVQAGGSLRLSCAASGRTIWYYAMGWYRQAPGKERELVAAITYRGGSTYYADSVKGRFTISRDNVKNTVYLQMNSLKPEDTAVYFCAKENYYGGGFDYWGQGTQVTVSS
polyreactivity (PSR sort gate): high polyreactivity

QVHLVESGGGLVQAGGSLRLSCAASGSIFSRNAMGWYRQAPGKERELVAAISRGANTYYADSVKGRFTISRDNAKNTVYLQMNSLKPEDTAVYYCNAGSRSRYEGGYWGQGTQVTVSS
polyreactivity (PSR sort gate): high polyreactivity

QVQLEESGGGLVQAGCSLRLSCADSGITFGGNAMGWYRQAPGKERDLVAAIDEGGGSTYYADTVKGRFTLSRDNAKNTVYLQMHSLKPEPTAVDYCAADFGYYGYYYWGQGTQVTVST
polyreactivity (PSR sort gate): low polyreactivity

QVQLVESGGGLVQAGGSLRLSCAASGRIFRRNAMGWYRQAPGKEREFVATITSGGSTFYADSVKGRFTISRDNAKNTVYLQMNSLKPEDTAVYYCAAPSYNTPFHTPNYSWGQGTQVTVSS
polyreactivity (PSR sort gate): low polyreactivity

QVQLVESGGGIVQAGGSLRISFAASGFTFLGNAMGWYRQEPGKERELVARISTRGGTTYYADSVKGRFTISRDNAKYTVYFQMNRLKPEDTAVYYCAKKYYLYSPYRTGYDYWGQGTQVTVSS
polyreactivity (PSR sort gate): high polyreactivity

QVQLVESGGGLVQAGGSLRLSCAASGRIYAVNAMRWYRQAPGKERELVARIRRIGGSTYYADSVKGRFTISRDNAKNTVYLQMNSMKPEDTAVYYCAKTLGRRHPGYDYWGQGTQVTVSS
polyreactivity (PSR sort gate): high polyreactivity

QVQLVESGGGLLQAGGSLRLSCAASGSIYTPYAMGWSRQAPGKERELVATITQSGSSTYYADSVKGRFTISRDNAKNSVYLQMNSLKPEDTAVYYCAADVQNISFDYWGQGTQVTVSS
polyreactivity (PSR sort gate): low polyreactivity

QVQLVESGGGLVQAGGSLRLSCAASGRTFYGYDMGWYRQAPGKERELVATISSGGSTNYADSVKGRFTISRDNAKNTVYLQMHSLKPEDTAVYYCIARRFSGYRKGLRPYGSGMNYWGQGTQVTVSS
polyreactivity (PSR sort gate): low polyreactivity

QVQLVESGGGLVQAGGSLRLSCAASGRTFLLNAMGWSRQAPGKERELVAAITRSGVITYYADSVKGRFTISRDNAKNTVYLQMNSLKPEDTAVYYCAAQLRYSYLRPSYYYWGQGTQVTVSS
polyreactivity (PSR sort gate): high polyreactivity

QVQLVESGGGLVQAGASLRLSCAASGRILKTYAMGSYRQAPGKERELVAAITGRGGRTYYADSVKGRFTISRDNAKNTFYLQMISLKPEDTAVYYCAAYYGPSRSLYYYWGQGSQVTVSS
polyreactivity (PSR sort gate): high polyreactivity

QVQLVESGGGLVQAGGSLRLSCAASGRIFKNYVMGWYRQAPGKERELVAAITYSGGSTRYADSVKGRFTISRDNAKNTVYLQMNSLKPEDTAVYYCAASRTYYRTYTFYYWGQGTQVTVSS
polyreactivity (PSR sort gate): high polyreactivity

QVQLVDSGGGLVQAGGSLRLSCAASGFIFVKYAMGWYRQAPGKERELVAAITTSGTGTFYADSVKGRFTISRDNAKNTVYLQMNSLKPEDTAVYYCNALGHPGDDWGQGTQVTVSS
polyreactivity (PSR sort gate): low polyreactivity

QFQLVESGGGFVQAGGSLRLSCAASGRTFYPYAMGLYRQAPGKERELVAAISSSGGSTYYADSVKGRFTISRDNAKNTVYLQMNSLKPDDTAVYYCAAVASKYKYTGGMDYWGQGTQVTVSS
polyreactivity (PSR sort gate): high polyreactivity

QVQLVESGGGLVQAGGSLRLSCAASGLIFSRYTMGWYRQAPGKERELVAAISKTGSSTYYADSVKGRFTISRDNAKNTVYLQMNSLIPEDTAVYYCAARAYPGYYWGQGTQVTVSS
polyreactivity (PSR sort gate): high polyreactivity

QVQLVESGGGLVQAGGSLRLSCAASGSIFFVNDMGWYRQAPGKERELVAAITRDGGTNYADSVKGRFTISRDNAKNTVYLQMNSLKPEDTAVYYCAKESGSVLSLYDYWGQGTQVTVSS
polyreactivity (PSR sort gate): low polyreactivity

QVQLVESGGGLVQAGGSLRLSCAASGSISRFNTMGWYRQAPGKERELVAAITVSGGSTYYADSVKGRFTISRDNAKNTVYLQMNSLKPEDTAVYYCAKEAWRYRLNFRYNYWGQGTQVTVSS
polyreactivity (PSR sort gate): low polyreactivity

QVQLEESGGGLVQAGGSLRLSCAASGRTLGYNAMGWYRQAPGKERELVAAISYGGGGTYYADSVKGRFTISRDNAKNTVYLQMNSLKPEDSAVYYCAKPRAFVGYNHWGQGTQVSVSS
polyreactivity (PSR sort gate): low polyreactivity

QVQLVESGGGLVQAGGSLRLSCAASGSTFGLNAMGWYRQAPGKERELVAAISTSGGSTYYADSVKGRFTISRDNAKNTVYLQMNSLKPEDTAVYYCAAEVVAGYDYSQYYYWGQGTQVTVSS
polyreactivity (PSR sort gate): low polyreactivity

QVQLVESGGGLVQAGGSLRLSCSASERTFYWNTMGWYRQAPGKERELVAAIRTSGGSTYYADSVKGRFTISRDNAKNTVYLQMNSLKPEDTAVYYCAAKYRNYNTRYDYWGQGTQVTVSS
polyreactivity (PSR sort gate): high polyreactivity

QEQLVESGGGFVQAGGSLRLSCAASGRIFTGYAMGWYRQAPGKERELVAVITWSTGSSTYYADSVKGRFTISRDNAKNTVYLQMNSLNPEDTAVYYFNAAYKIDFTYDTYDYWGQGTQVTVSS
polyreactivity (PSR sort gate): low polyreactivity

QVQLVESGGGLVQAGGSLRLSCAASGRTFRGNAMGWYRQAPGKERELVAAISWRGTSTYYADSVKGRFTISRDNAKNTVYLQMNSLKPEDTAVYYCNTQRQLGERFYDRSRQGDYWGQGTQVTVSS
polyreactivity (PSR sort gate): high polyreactivity

QVQLVESGGGLVQAGGSLRLSCAASGSIFLWNAMGWYRQAPGKERELVAAISSSGGSTYYADSVKGRFTISRDNAKNTVYLQLNSLKPEDTAVYYCAAVSRSYYNSYNYWGQGTQVTVSS
polyreactivity (PSR sort gate): high polyreactivity

QVQLVESGGGLVQAGGSLRLSCAASGRIFQWYAMGWYRQAPGKERELVAAIRNGGTTNYADSVKGRFTISRDNAKNTVYLQMNSLKPEDTAVYYCNADKYRTWVFQPRYPGGYWGQGTQVTVSS
polyreactivity (PSR sort gate): low polyreactivity

QVHLVESGGGLVQAGGSLRLSCAASGSIFHGYSMGWYRQAPGKERELVAAINSGDGSTYADSVKGRFTISRDNAKNTVYLQMNSLKPEDTAVYYCATDGTYYEHDYWGQATQVTVSS
polyreactivity (PSR sort gate): low polyreactivity

QDQLVESGGGLVQAGGSLRLSCAASGNNFFPYAMGWYRQAPGTEREFVAAINWSGGSTYYADSVKGRFTISRDNAKNTVYLQMNSLKPEDTAVYYCAASSGKWGHGYWGQGTQVTVSS
polyreactivity (PSR sort gate): high polyreactivity

QVQHLESGGGLVQAGGSLRLSCAASAITFDHYAMGWYRQAPGKEREFVAAIDDIGGDTYYPDSVKGRFTSSRDNAKNNVYLQMNSVQPEDTAVYDCNADGEGADSDYEYWGQGNQVTVSS
polyreactivity (PSR sort gate): low polyreactivity

QVQLVESGGGLVQAGGSLRVSCAASGFTFSDYAMGWYRQAPGKESELVAGISSGGSTNYADSVKGLFTISRDNAKNTVYLQMNSLKPDDTAVYYCAADLYATWSYFFTWLDYWGQGTQVTVSS
polyreactivity (PSR sort gate): high polyreactivity

QVQLVESAGGLVQAGGSLRLSCAASGNTFWFYGMGWYRPAPGKVRELVAAITSGGSTDYPDSVKGRCTISRDNAKNTVYLQMNSLKPEDTALYYCAAEPVAYYGSSYGYWGQGTQVTVSS
polyreactivity (PSR sort gate): low polyreactivity

QVQLVESGGGLVQAGGSPRLSCAASGRIFGAYAMGWYRQAPGQERELVAGNRSVGSTNYADSVKGRFTISRDNAKNTVYFQMNSLKPEDTAVYYCAARLWHLSYAGQGGDYWGQGTQVTVSS
polyreactivity (PSR sort gate): low polyreactivity

QVQLVESGGGLVQAGGSLRLSCAASGFIFTYNDMGWYRQAPGKERELVASISWDGGRTYYADSVKRRFTISRDNAKNTVYLQMNSLKPEDTADYYWDKRLGGSPIQARGDYWGQCTQVTVSS
polyreactivity (PSR sort gate): low polyreactivity

QVQLVESGGGLVQAGGSLRLSCAASGYIFSLYGMGWYRQAPGKERELVAAITGSGGGTYADSVKGRFTISRDNAQNTVYLQMKSLKPEDTAVYYCAAGGYRRRFWPIYDYWGQGTQVTVSS
polyreactivity (PSR sort gate): low polyreactivity

QVQLVESGGGLVQAGGSLRLSCAASGRTFGYYRMGWYRQAPGKERELVAAITGSGGSTYYADSVKGRFTISRDNAKNTVYLQMNSLKAEDTAVYYCAATYLSRWTLYDYWGQGTQVTVSS
polyreactivity (PSR sort gate): high polyreactivity

QVQLVDSGGGLVQAGGSLRLSCAASGRTFGSYAMGWSRQAPGKERELVAAISSSGGRTYYADSVKGRFTISRDNAKNTVYLQLNSLKPEDTAVYYCNARWRFLYDYWGQGTQVTVSS
polyreactivity (PSR sort gate): high polyreactivity

QVQLVESGGGLVQAGGSLRLSCAASGSIFGGYVMGWFRQAPGKERELVAAITSNGGITYADSVKGRFTISRDNAKNTVYLQMHSLKPEDTAVYYCAADSWFYGGEYKFGYYWGQGTQVTVSS
polyreactivity (PSR sort gate): low polyreactivity

QVQLVESGGGLVQAGGSLRLSCAASGRIFLRNTMGWYRQAPGTERELVAAITGRGGSTYYADSVKGRFTISRDNAKNTVYLQMNSLIPEDTAVYYCAARSPGYSPPGPVRLSDYWGQGTQVTVSS
polyreactivity (PSR sort gate): high polyreactivity

QVQLVESGGGLVQAGGSLRLSCAASGRTFRYYAMGWYRQAPGKERELVATSTGSGGSTYYADSVKGRFTISRDNSKNTVYLQMNSLKPEDTAVYYCNARKVRYPYRWYDYWGQGTQVTVSS
polyreactivity (PSR sort gate): high polyreactivity

QVQHVESGGGLVQAGGSLRLSCAASGFTFQSYPMGWYRQAPGKERELVAAITRRGTRTYYADSVKGRFTISRDNAKNTVYLQLNSLKPEDTAVYYCAARSPKLEFDYWGQGTQVTVSS
polyreactivity (PSR sort gate): high polyreactivity

QVQLVESGGGLVQAGGSLRLSCAASGIIFSYYPMGRYRQAPGIERELVAAISRSGGNTYYADSVKGRFTISRDNAKNTVYVQMNSLKPEDTAVYYCAVGWYDDYYYGYDYWGQGTQVTVSS
polyreactivity (PSR sort gate): high polyreactivity

QVQLVESGGGLVQAGGSLRLSCAASGLTSTDNAMGWYRQAPGKERELVAGITTGGSTYYADSVKGRFTISRDNAKNTVYLQMNSLKPEDTAVYYCNAPTYADTTYDYWGQGTQVTVSS
polyreactivity (PSR sort gate): low polyreactivity
